Experimental data reported in paper PMC8913300, “Two distinct classes of cochaperones compete for the EEVD motif in heat shock protein 70 to tune its chaperone activities” (The Journal of Biological Chemistry, 2022).

Test system: Hsp72–DnaJB4 complex
Assay: Luciferase refolding by Hsp72/DnaJB4 in the presence of TPR cochaperones
Assay type: biochemical
Conditions: 1 μM Hsp72, 100 nM denatured luciferase, 120 nM DnaJB4; CHIP titration or 10 μM TPR protein; 1 h at 37 °C
Method: Experiments were performed as described ([14]). Briefly, Renilla luciferase (Promega) was denatured in 8 M GdnHCl for 2 h at room temperature. Hsp72 (1 μM) and denatured luciferase (100 nM) were diluted into a working concentration in buffer containing an ATP regenerating system (23 mM Hepes, 120 mM KAc, 1.2 mM MgAc, 15 mM DTT, 61 mM creatine phosphate, 35 units/ml creatine kinase, and 5 ng/μl bovine serum albumin, pH 7.4). A titration series of DnaJB4 was added, and the reaction was initiated with the addition of 2.5 mM ATP. For competition assays with DnaJB4, complexes of Hsp72 (1 μM), denatured luciferase (100 nM), and DnaJB4 (120 nM) were incubated with either a titration of CHIP or 10 μM of indicated TPR protein. In all cases, the assay was allowed to incubate for 1 h at 37 °C in white, 96-well flat-bottom plates (Corning 3990). Luminescence was measured using the SteadyGlo luminescence reagent (Promega), and percent refolded luciferase was calculated using a standard curve of 100 to 0 nM native luciferase.

B1: DnaJC7: TPR cochaperone that also contains a J-domain (protein, UniProt Q99615 2-494, looked up)
DnaJ homolog subfamily C …: AAAAECDVVMAATEPELLDDQEAKREAETFKEQGNAYYAKKDYNEAYNYYTKAIDMCPKNASYYGNRAATLMMLGRFREALGDAQQSVRLDDSFVRGHLREGKCHLSLGNAMAACRSFQRALELDHKNAQAQQEFKNANAVMEYEKIAETDFEKRDFRKVVFCMDRALEFAPACHRFKILKAECLAMLGRYPEAQSVASDILRMDSTNADALYVRGLCLYYEDCIEKAVQFFVQALRMAPDHEKACIACRNAKALKAKKEDGNKAFKEGNYKLAYELYTEALGIDPNNIKTNAKLYCNRGTVNSKLRKLDDAIEDCTNAVKLDDTYIKAYLRRAQCYMDTEQYEEAVRDYEKVYQTEKTKEHKQLLKNAQLELKKSKRKDYYKILGVDKNASEDEIKKAYRKRALMHHPDRHSGASAEVQKEEEKKFKEVGEAFTILSDPKKKTRYDSGQDLDEEGMNMGDFDPNNIFKAFFGGPGGFSFEASGPGNFFFQFG
Q: B1 was tested. Which “effect on client (luciferase) refolding by Hsp72–DnaJB4” value did it give?
A: The value was “strongly promoted luciferase refolding”.
